This is an account of results in US20090180995A1, “NOVEL ANTICOAGULANT POLYPEPTIDES AND COMPLEX” (National University of Singapore, priority 2005, published 2009).

Assay type in all cases: biochemical
For test [1], the system named is plasma. The experiment in a line: Thrombin time. To be noted: human plasma, thrombin reagent. On the procedure: (§1) Anticoagulant activity—The anticoagulant activities of H. haemachatus venom and its fractions was determined by four coagulation tests using a BBL fibrometer: • 1. Recalcification time: The recalcification times were determined according to the method of Langdell et al. (25). 50 mM Tris-HCl buffer (pH 7.4) (100 μl), plasma (100 μl) and various concentrations of venom or its fraction (50 μl) were preincubated for 2 min at 37° C. Clotting was initiated by the addition of 50 μl of 50 mM CaCl2. • 2. Prothrombin time: The prothrombin times were measured according to the method of Quick (26). […] Clotting was initiated by the addition of thromboplastin with calcium reagent (150 μl) which can be purchased from Sigma (St. Louis, Mo., USA). • For studying the role of electrostatic interactions, the anticoagulant activity of a specific concentration of hemextin A (4.4 μM), hemextin B (4.4 μM) and hemextin AB complex (0.11 μM) was monitored in 50 mM Tris-HCl (pH 7.4) containing various concentrations of NaCl (35 mM to 150 mM). • For studying the role of hydrophobic interactions, the anticoagulant activity of a specific concentration of hemextin A (4.4 μM), hemextin B (4.4 μM) and hemextin AB complex (0.11 μM) was monitored in 50 mM Tris-HCl (pH 7.4) containing various concentrations of glycerol (125 mM to 250 mM). • 2. […] Thrombin time: Thrombin time was determined according to the method of Jim (28). […]

Test [2] has as its system plasma. As to the kind of experiment: Stypven time. The settings on record: human plasma, RVV. As for the experimental part:
as §1

For the next test, the target named is T1, FVIIa (Homo sapiens, UniProt P08709).
T1 construct: from tissue; host or cells: human plasma
T1 sequence (P08709 61-212 limits assumed): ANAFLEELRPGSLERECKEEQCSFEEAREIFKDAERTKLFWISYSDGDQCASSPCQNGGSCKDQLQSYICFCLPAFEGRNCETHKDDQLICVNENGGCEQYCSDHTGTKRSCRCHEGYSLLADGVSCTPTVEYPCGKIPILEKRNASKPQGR
T1 sequence (P08709 213-466 limits assumed): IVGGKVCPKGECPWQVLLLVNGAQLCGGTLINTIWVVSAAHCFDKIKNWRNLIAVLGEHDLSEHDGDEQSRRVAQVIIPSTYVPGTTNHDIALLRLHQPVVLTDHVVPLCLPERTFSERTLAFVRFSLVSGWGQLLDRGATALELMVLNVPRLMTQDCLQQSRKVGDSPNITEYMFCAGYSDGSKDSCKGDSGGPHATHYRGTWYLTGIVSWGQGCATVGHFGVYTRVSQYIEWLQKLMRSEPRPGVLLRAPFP
The experiment in a line: FVIIa amidolytic activity. To be noted: absence of sTF; for inhibition of FVIIa amidolytic activity: FVIIa (300 nM)/S-2288. As for the experimental part: (§2) Serine protease specificity—The selectivity profile of anticoagulant proteins and their complex was examined against 12 serine proteases—procoagulant serine proteases (FIXa, FXa, FXIa, FXIIa, plasma kallikrein and thrombin), anticoagulant serine protease (APC), fibrinolytic serine proteases (urokinase, t-PA and plasmin) and classical serine proteases (trypsin and chymotrypsin). Various concentrations of purified hemextin A/hemextin B and reconstituted hemextin AB complex were preincubated with each of the enzymes (Table 1) for a period of five minutes at a temperature of 37° C., followed by the addition of appropriate chromogenic substrate.
For studies with FXIa, kallikrein and urokinase, the appropriate substrates were determined prior to their screening against the inhibitors. For FXIa, the Vmax for the amidolytic activity corresponding to the chromogenic substrates S-2266, S-2302 and S-2366 was determined. S-2302 was the substrate with the highest Vmax and thus was used in the screening studies. Similar studies with kallikrein and urokinase were carried out with substrates S-2266, S-2302 and S-2288 for kallikrein and S-2444 and S-2484 for urokinase. In a total volume of 200 μl in the individual wells of the microtiter plate, final concentrations of FVIIa (300 nM)/S-2288, FVIIa-sTF (30 nM)/S-2288, FXa (0.75 nM)/S-2765, α-thrombin (0.66 nM)/S-2238, plasmin (2 nM)/S-2366, FIXa (3 μM)/spectrozyme®fIXa, FXIa (0.34 nM)/S-2366, FXIIa (0.4 nM)/S-2302, recombinant tissue plasminogen activator (80 nM)/S-2288, activated protein C (0.34 nM)/S-2366, urokinase/S-2444, plasma kallikrein (0.4 nM)/S-2302, trypsin (2.17 nM)/S-2222 and chymotrypsin (0.4 nM)/S-2586 were measured. The kinetic rate of substrate hydrolysis (mOD/min) was measured over 5 min.

For another test, the target named is T2, FVIIa-sTF (Homo sapiens, UniProt P08709).
T2 construct: made in house; host or cells: Saccharomyces cerevisiae (sTF); human plasma (FVIIa)
The experiment in a line: FVIIa-sTF amidolytic activity. The settings on record: FVIIa-sTF (30 nM)/S-2288. As for the experimental part: as §2
For studies with FXIa, kallikrein and urokinase, the appropriate substrates were determined prior to their screening against the inhibitors. For FXIa, the Vmax for the amidolytic activity corresponding to the chromogenic substrates S-2266, S-2302 and S-2366 was determined. S-2302 was the substrate with the highest Vmax and thus was used in the screening studies. Similar studies with kallikrein and urokinase were carried out with substrates S-2266, S-2302 and S-2288 for kallikrein and S-2444 and S-2484 for urokinase. […] The kinetic rate of substrate hydrolysis (mOD/min) was measured over 5 min.

T2 sequence (P13726 33-251 partner limits assumed, one chain of several): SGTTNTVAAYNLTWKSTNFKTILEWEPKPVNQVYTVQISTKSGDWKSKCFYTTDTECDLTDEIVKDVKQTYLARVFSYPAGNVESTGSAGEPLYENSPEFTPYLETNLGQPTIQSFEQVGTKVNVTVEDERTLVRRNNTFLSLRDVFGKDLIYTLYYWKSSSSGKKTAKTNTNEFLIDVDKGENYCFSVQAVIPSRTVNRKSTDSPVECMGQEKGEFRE

B1: hemextin B (protein)
chain: LKCKNKVVPFLKCKNKVVPFLCYKMTLKKVPKIPIKRGCTDACPKSSLLVNVMCCKTDKCN
For the molecule B1, in the test on plasma [1], the “clotting time, thrombin time” value was “did not prolong clotting times”. Besides, in the test with plasma [2], the “clotting time, Stypven time” value is “did not prolong clotting times”. The “inhibition of FVIIa amidolytic activity” value with FVIIa was “did not exhibit any inhibitory activity”.

B2: hemextin A (protein)
chain: LKCKNKLVPFLSKTCPEGKNLCYKMTMLKMPKIPIKRGCTDACPKSSLLVKVVCCNKDKCN
B2: in the test on plasma [1], the “clotting time, thrombin time” value was “did not prolong”. Besides, the “clotting time, Stypven time” value with plasma [2] was “did not prolong”. Also, the “inhibition of FVIIa-sTF amidolytic activity” value in the test with FVIIa-sTF is “potent inhibitory activity”. Also, in the test with FVIIa, the IC50 is approximately 105 nM and the “inhibition of FVIIa amidolytic activity” value is “potent inhibitory activity”.

B3: hemextin AB complex: synergistic 1:1 tetrameric complex of hemextin A and hemextin B, reconstituted from equimolar proteins (protein)
chain 1: B2 chain
chain 2: B1 chain
Take B3: the “inhibition of FVIIa-sTF amidolytic activity” value with FVIIa-sTF is “potent inhibitory activity”. In the test with FVIIa, the IC50 was approximately 105 nM and the “inhibition of FVIIa amidolytic activity” value is listed as “potent inhibitory activity”.
